Data taken from patent publication US20240301052A1 (LANOVA MEDICINES DEVELOPMENT, published 2024).

T1: human SLC34A2 (human, UniProt O95436 1-690)
T1 construct: whole, on cells; also called human solute carrier 34 A2; NaPi2b
T1 sequence (looked up): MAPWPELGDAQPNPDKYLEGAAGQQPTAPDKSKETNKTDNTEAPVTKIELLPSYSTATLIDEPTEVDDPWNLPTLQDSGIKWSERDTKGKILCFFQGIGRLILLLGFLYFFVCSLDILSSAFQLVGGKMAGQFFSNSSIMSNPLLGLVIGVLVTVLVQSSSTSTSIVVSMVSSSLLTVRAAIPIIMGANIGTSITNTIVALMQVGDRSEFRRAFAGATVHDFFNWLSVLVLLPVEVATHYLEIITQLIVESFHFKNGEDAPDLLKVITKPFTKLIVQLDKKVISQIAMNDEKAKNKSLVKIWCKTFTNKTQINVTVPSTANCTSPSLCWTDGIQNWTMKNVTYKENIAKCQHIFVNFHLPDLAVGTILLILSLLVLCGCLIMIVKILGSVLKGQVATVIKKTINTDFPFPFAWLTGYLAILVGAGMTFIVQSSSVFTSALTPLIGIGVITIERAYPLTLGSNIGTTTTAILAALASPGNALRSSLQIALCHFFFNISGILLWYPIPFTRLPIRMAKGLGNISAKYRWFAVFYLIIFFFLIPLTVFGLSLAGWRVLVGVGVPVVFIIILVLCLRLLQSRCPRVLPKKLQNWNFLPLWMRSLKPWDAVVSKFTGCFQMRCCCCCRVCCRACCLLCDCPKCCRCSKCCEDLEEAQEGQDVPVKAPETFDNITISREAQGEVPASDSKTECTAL

T2: Rhesus SLC34A2 (Rhesus, UniProt F7HDA3 1-690)
T2 construct: whole, on cells
T2 sequence: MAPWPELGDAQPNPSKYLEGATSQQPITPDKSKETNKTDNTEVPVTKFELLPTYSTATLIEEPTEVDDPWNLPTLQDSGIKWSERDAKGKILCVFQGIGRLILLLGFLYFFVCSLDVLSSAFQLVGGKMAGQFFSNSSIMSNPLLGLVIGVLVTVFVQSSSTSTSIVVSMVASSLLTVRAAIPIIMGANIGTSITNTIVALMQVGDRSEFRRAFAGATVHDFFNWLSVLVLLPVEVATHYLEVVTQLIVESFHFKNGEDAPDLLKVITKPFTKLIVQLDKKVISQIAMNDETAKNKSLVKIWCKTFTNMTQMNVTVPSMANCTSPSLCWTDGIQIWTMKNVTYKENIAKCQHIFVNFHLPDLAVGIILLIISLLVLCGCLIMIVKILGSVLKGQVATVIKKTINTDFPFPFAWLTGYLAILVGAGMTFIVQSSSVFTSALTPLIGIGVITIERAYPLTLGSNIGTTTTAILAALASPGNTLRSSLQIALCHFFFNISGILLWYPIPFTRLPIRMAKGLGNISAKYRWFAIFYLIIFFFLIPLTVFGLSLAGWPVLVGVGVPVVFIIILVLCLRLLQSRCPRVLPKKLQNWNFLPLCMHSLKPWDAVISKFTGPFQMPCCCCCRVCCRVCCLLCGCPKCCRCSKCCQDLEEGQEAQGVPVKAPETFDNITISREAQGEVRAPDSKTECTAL

T3: rat SLC34A2 (rat, UniProt Q9JJ09 1-695)
T3 construct: whole, on cells
T3 sequence (looked up): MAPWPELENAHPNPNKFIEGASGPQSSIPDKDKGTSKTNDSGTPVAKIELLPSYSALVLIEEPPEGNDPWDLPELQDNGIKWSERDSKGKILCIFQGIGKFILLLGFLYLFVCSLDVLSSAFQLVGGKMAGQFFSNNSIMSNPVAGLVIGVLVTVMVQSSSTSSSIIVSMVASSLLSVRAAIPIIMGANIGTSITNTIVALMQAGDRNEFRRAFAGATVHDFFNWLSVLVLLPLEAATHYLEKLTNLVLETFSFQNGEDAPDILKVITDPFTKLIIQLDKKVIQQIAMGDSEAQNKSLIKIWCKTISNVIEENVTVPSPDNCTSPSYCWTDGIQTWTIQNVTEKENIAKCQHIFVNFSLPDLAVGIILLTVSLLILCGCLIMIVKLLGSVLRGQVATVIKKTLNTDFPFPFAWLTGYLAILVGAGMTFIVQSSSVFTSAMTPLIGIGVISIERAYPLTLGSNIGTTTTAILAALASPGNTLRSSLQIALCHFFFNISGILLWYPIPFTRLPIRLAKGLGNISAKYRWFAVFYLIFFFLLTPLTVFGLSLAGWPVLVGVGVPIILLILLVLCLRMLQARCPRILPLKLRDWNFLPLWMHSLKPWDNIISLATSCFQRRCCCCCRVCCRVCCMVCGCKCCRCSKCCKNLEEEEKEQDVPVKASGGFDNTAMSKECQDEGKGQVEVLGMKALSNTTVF


Assays:
[1] = biological target: T1, human SLC34A2; experiment: FACS, OVCAR3 cells
Outline: (§1)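 Each cell line was labeled with humanized antibody (4° C., 60 min), then with a fluorescent conjugated secondary (4° C., 30 min), with double washes after each step; fluorescence was read by flow cytometry.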

[2] = biological target: T1, human SLC34A2; experiment: FACS, HEK293/human SLC34A2 cells
Outline: as §1

[3] = biological target: T2, Rhesus SLC34A2; experiment: FACS, HEK293/Rhesus SLC34A2 cells
[4] = biological target: T1, human SLC34A2; experiment: FACS, RMG-1 cells
Outline: as §1

[5] = biological target: T1, human SLC34A2; experiment: cell-based or functional assay
[6] = biological target: T1, human SLC34A2; experiment: FACS, OVCAR3 cells; remark: listed apart in the source
[7] = biological target: T1, human SLC34A2; experiment: cell-based or functional assay; remark: listed apart in the source
[8] = biological target: T3, rat SLC34A2; experiment: FACS, HEK293/Rat SLC34A2 cells

| Binder | EC50 [1] | EC50 [2] | Top [2] | EC50 [3] | Top (MFI) [3] | EC50 [4] | Top [4] | ADCC reporter EC50 [5] | ADCC reporter Top (MFI) [5] | Top [1] | EC50 [6] | ADCC-HEK293 [7] | ADCC-OVCAR3 [7] | EC50 [8] | Cytotoxic Effect - MDAH-2774 [7] | Cytotoxic Effect - OVCAR3 [7] |
| --- | --- | --- | --- | --- | --- | --- | --- | --- | --- | --- | --- | --- | --- | --- | --- | --- |
| xi63A11D5B4 hIgG1 (antibody, V domains shown, chimeric, hIgG1) VH: QVQLQQPGAELVKPGASVKMSCRTSGYTFITYNMHWVKQTPGQGREWIGAIYPGNGDTSYNQKFKGKATLTADKSSSTAYMQLNSLTSEDSAVYYCSISTIITTGAVDYWGQGTSVTVAS VL: DIVMTQSHKFMSTSVGDRVSITCKASQDVGTAVAWYQQKAGQSPKLLIYWTSTRHTGVPDRFTGSGSGTDFTLIIRSLQSEDLADYFCQQYSRIPLTFGSGTKLEIK | 10.5 nM | 5.21 nM | 35600 MFI | 2.3 nM | 15200 MFI | 14.4 nM | 11200 MFI | – | – | – | – | – | – | – | – | – |
| xi91C9F1 hIgG1 (antibody, V domains shown, chimeric, hIgG1) VH: EVQLQQSGPELVKPGTSVKISCKTSGFFFTEYIIHWVKQSHGRSLEWIGGIIPNNGVTNYKQNFRGKAALTADKSSNTAYMELRSLTSEDSAVYYCARWRNGYYSAMDSWGQGTSVTVSS VL: DIVVTQSHKFMSTSLGDRVSITCTASQDVGTAVAWYQQKPGHSPKLLIYWASTRHTGVPERFTGSGSGTDFTLTITNVQSEDLADYFCQQYRTSPLTFGVGTKLELK | 2.5 nM | 1.77 nM | 32100 MFI | 1.2 nM | 11400 MFI | 1.76 nM | 9730 MFI | 1.96 nM | 133000 MFI | 21000 MFI | – | – | – | – | – | – |
| 63A11D5B4.p1.z9 hIgG1 (antibody, V domains shown, humanized hIgG1) VH: QVQLVQSGAEVVKPGASVKMSCKTSGYTFITYNMHWVRQAPGQGLEWIGAIYPGSGDTSYNQKFKGRVTLTADKSTSTAYMELSSLRSEDTAVYYCSISTIITTGAVDYWGQGTLVTVSS VL: DIQMTQSPSSLSASVGDRVTITCKASQDVGTAVAWYQQKPGKVPKLLIYWTSTRHTGVPSRFSGSGSGTDFTLTISSLQPEDVATYYCQQYSRIPLTFGGGTKVEIK | 9.12 nM | 5.49 nM | 36800 MFI | 1.6 nM | 11800 MFI | 28.3 nM | 12200 MFI | 1.69 nM | 116000 MFI | – | 9.1 nM | 0.52 nM | 0.3 nM | 3.04 nM | 1.5 nM | 0.06 nM |
| 62G10E4G8.p3.z15 hIgG1 (antibody, V domains shown, humanized hIgG1) VH: QVQLVQSGAEVVKPGASVKMSCKASGYTFPSYITHWVKQAPGQGLEWIGAIYPGNADTSYIQKFKGRATLTADKSTSTAYMELSSLRSEDTAVYYCARGTYGTSAWFTYWGQGTLVTVSS VL: EIVLTQSPATLSVSPGERATLSCRARQNIGNNLYWYQQKPGQSPRLLIKYASQSISGIPSRFSGSGSGTDFTLTISSLQSEDFAVYFCQQSFSWPLTFGQGTKLEIK | 3.76 nM | 2.34 nM | 33600 MFI | 1.4 nM | 14400 MFI | 3.69 nM | 10800 MFI | 5.39 nM | 123000 MFI | – | 3.8 nM | 1.55 nM | 0.56 nM | 4.04 nM | 0.24 nM | 0.025 nM |
| xi62G10E4G8 hIgG1 (antibody, V domains shown, chimeric, hIgG1) VH: QVQLQQSGAEVVKPGASVKMSCKASGYTFPSYITHWVKQTPGQGLEWIGAIYPGNGDTSYIQKFKGKATLTADKSSSTAYMQLSSLTSEDSAVYYCARGTYGTSAWFTYWGQGTLVTVSA VL: DIVLTQSPATLSVTPGDSVSLSCRARQNIGNNLYWYQQKSHESPRLLIKYASQSISGIPSRFSGSGSGTDFTLTINSVETEDFGVYFCQQSFSWPLTFGAGTKLELK | 3.73 nM | 4.26 nM | 32700 MFI | 1.8 nM | 13300 MFI | 7.97 nM | 11300 MFI | 4.56 nM | 101000 MFI | – | – | – | – | – | – | – |

The remaining binders from weak to strong by EC50 [1], led by results:

| EC50 [1] | EC50 [2] | Top [2] | EC50 [3] | Top (MFI) [3] | EC50 [4] | Top [4] | ADCC reporter EC50 [5] | ADCC reporter Top (MFI) [5] | Top [1] | EC50 [6] | ADCC-HEK293 [7] | ADCC-OVCAR3 [7] | EC50 [8] | Binder | Cytotoxic Effect - MDAH-2774 [7] | Cytotoxic Effect - OVCAR3 [7] |
| --- | --- | --- | --- | --- | --- | --- | --- | --- | --- | --- | --- | --- | --- | --- | --- | --- |
| 2.41 nM | 1.67 nM | 37400 MFI | 4.2 nM | 9500 MFI | 2.25 nM | 9720 MFI | 2.12 nM | 124000 MFI | 20500 MFI | 2.4 nM | 0.75 nM | 0.15 nM | 2.62 nM | 91C9F1.p1.z7 hIgG1 (antibody, V domains shown, humanized hIgG1) VH: QVQLVQSGAEVKKPGSSVKVSCKTSGFFFTEYIIHWVRQAPGQGLEWIGGIIPNNDVTNYKQNFRGRVTLTADKSTSTAYMELSSLRSEDTAVYYCARWRNAYYSAMDSWGQGTTVTVSS VL: DIQVTQSPSSLSTSVGDRVTITCTASQDVGTAVAWYQQKPGKSPKLLIYWASTRHTGVPERFTGSGSGTDFTLTISSVQPEDVATYFCQQYRTSPLTFGVGTKVEIK | 0.39 nM | 0.014 nM |
| 0.94 nM | 1.55 nM | 35200 MFI | 0.7 nM | 16000 MFI | 1.39 nM | 10900 MFI | 0.72 nM | 135000 MFI | – | 0.9 nM | 1.4 nM | 0.16 nM | 1.81 nM | 30H9B8F9.p1.z5 hIgG1 (antibody, V domains shown, humanized hIgG1) VH: QVQLVQSGAEVKKPGASVKVSCKTSGYTFTTNNMHWVRQAPGQGLEWIGAIYPGSGATAYNQKFKGRVTMTADTSTSTVYMELSSLRSEDTAVYYCARGMYGHGAMDYWGQGTLVTVSS VL: DIQLTQSPSFLSASVGDRVTITCKASQDVGTAVAWYQQKPGKAPKLLIYWATTRHSGVPSRFSGSGSGTEFTLTISSLQPEDFATYYCQQYSSNPLTFGQGTKLEIK | 0.21 nM | 0.02 nM |
| 0.74 nM | 1.63 nM | 40800 MFI | 0.9 nM | 17400 MFI | 1.19 nM | 11500 MFI | 1.26 nM | 109000 MFI | – | – | – | – | – | xi30H9B8F9 hIgG1 (antibody, V domains shown, chimeric, hIgG1) VH: QVQLQQPGAELVKPGASVKMSCKTSGYTFTTNNMHWVKQTPGQGLEWIGAIYPGNGATAYNQKFKGKATLTADKSSSTAYMQLSSLTSEASAVYYCARGMYGHGAMDYWGQGTSVIVSS VL: DIVMTQSHKFMSRSVGDRVRITCKASQDVGTAVAWYQQKPGQSPKLLIYWATTRHSGVPDRFTGSGSGTDFIFTISNVQSEDLADYFCQQYSSNPLTFGAGTKLELK | – | – |
